In patent US20090149339A1 (published 2009):
Ends that are not written are not given here. * marks the point of attachment. Biotin = O=C1N[C@H]2[C@H](CS[C@H]2CCCCC(=O)*)N1

B1: DNAM-1 C-terminal PL peptide AA22L, biotinylated (peptide)
peptide: Biotin-TREDIYVNYPTFSRRPKTRV
B2: CD44 (long form) C-terminal PL peptide AA9L, biotinylated (peptide)
peptide: Biotin-QFMTADETRNLQNVDMKIGV

Columns and labels:
[1] = target: T1, GST-NeDLG PDZ domain fusion protein (presynaptic protein sao102, neuroendocrine-dlg; PDZ domains 1-2 of 3) (UniProt P08515 1-218 = GST); experiment: A assay
T1 construct: also called NeDLG1

[2] = target: T2, GST-LIM PDZ domain fusion protein (Human LIM protein AA29-112; PDZ domain 1 of 1) (human, UniProt P08515 1-218 = GST); experiment: A assay
[3] = target: T3, GST-41.8 kD PDZ domain fusion protein (hypothetical 41.8 kD protein AA4-85; PDZ domain 1 of 1) (UniProt P08515 1-218 = GST); experiment: A assay
T3 construct: also called hypoth

[4] = target: T4, GST-MPP1 PDZ domain fusion protein (55 Kd erythrocyte membrane protein AA101-186; PDZ domain 1 of 1) (UniProt P08515 1-218 = GST); experiment: A assay
[5] = target: T5, GST-RGS12 PDZ domain fusion protein (human regulator of G-protein signalling 12 AA35-103; PDZ domain 1 of 1) (human, UniProt P08515 1-218 = GST); experiment: A assay
T5 construct: also called RSG12

[6] = target: T6, GST-AF6 PDZ domain fusion protein (af-6 protein AA985-1077; PDZ domain 1 of 1) (UniProt P08515 1-218 = GST); experiment: A assay
[7] = target: T7, GST-PSD95 PDZ domain fusion protein (human post-synaptic density protein 95 AA387-724; PDZ domains 1-3 of 3) (human, UniProt P08515 1-218 = GST); experiment: A and G assays
[8] = target: T8, GST-MPP2 PDZ domain fusion protein (maguk p55 subfamily member 2 (DLG2) AA185-273; PDZ domain 1 of 1) (UniProt P08515 1-218 = GST); experiment: G assay
T8 construct: also called MMP2

[9] = target: GST-LIMK2 PDZ domain fusion protein (human LIM domain kinase 2 AA185-275; PDZ domain 1 of 1) (human, UniProt P08515 1-218 = GST); experiment: A/G assays
[10] = target: T9, GST-KIAA0559 PDZ domain fusion protein (KIAA0559 AA766-870; PDZ1 of 1) (UniProt P08515 1-218 = GST); experiment: A/G assays
T9 construct: also called K559

[11] = target: GST-DVL1 PDZ domain fusion protein (human dishevelled segment polarity protein homolog AA248-340); PDZ domain … (human, UniProt P08515 1-218 = GST); experiment: A/G assays
[12] = target: T10, GST-TAX33 PDZ domain fusion protein (tax interaction protein 33 AA73-162; PDZ domain 1 of 1) (UniProt P08515 1-218 = GST); experiment: A/G assays
T10 construct: also called TX33

[13] = target: T11, GST-KIAA0303 PDZ domain fusion protein (KIAA0303 AA652-742; PDZ domain 1 of 1) (UniProt P08515 1-218 = GST); experiment: A/G assays
T11 construct: also called K303

[14] = target: GST-MINT3 PDZ domain fusion protein (human MINT3 AA11-52; PDZ domain 1 of 1) (human, UniProt P08515 1-218 = GST); experiment: A/G assays
[15] = target: T12, GST-KIAA0316 PDZ domain fusion protein (KIAA0316 AA197-284; PDZ domain 1 of 1) (UniProt P08515 1-218 = GST); experiment: A/G assays
T12 construct: also called K316

[16] = target: GST-NOS1 PDZ domain fusion protein (human neuronal nitric oxide synthase; PDZ domain 1 of 1) (human, UniProt P08515 1-218 = GST); experiment: A/G assays
[17] = target: T13, GST-TAX43 PDZ domain fusion protein (human tax interaction protein 43 AA15-85; PDZ domain 1 of 1) (human, UniProt P08515 1-218 = GST); experiment: A/G assays
T13 construct: also called TX 43

[18] = target: T14, GST-prIL16 PDZ domain fusion protein (putative interleukin 16 precursor AA170-383; PDZ domains 1-2 of 2) (UniProt P08515 1-218 = GST); experiment: A/G assays
[19] = target: T15, GST-TAX40 PDZ domain fusion protein (human tax interaction protein 40 AA35-137; PDZ domain 1 of 1) (human, UniProt P08515 1-218 = GST); experiment: A/G assays
T15 construct: also called TX 40

[20] = target: GST-TIAM1 PDZ domain fusion protein (T-lymphoma invasion and metastasis inducing protein 1 AA1001-1088); PDZ 1 … (UniProt P08515 1-218 = GST); experiment: A/G assays
[21] = target: GST-PTN-4 PDZ domain fusion protein (protein-tyrosine phosphatase meg1 AA774-862; PDZ domain 1 of 1) (UniProt P08515 1-218 = GST); experiment: A/G assays
[22] = target: T16, GST-SYN1a PDZ domain fusion protein (alpha1-syntrophin AA96-189; PDZ domain 1 of 1) (UniProt P08515 1-218 = GST); experiment: A/G assays
T16 construct: also called SYN 1 alpha; SYNTR 1 alpha

[23] = target: T17, GST-CASK PDZ domain fusion protein (CASK AA495-584; PDZ domain 1 of 1) (mouse, UniProt P08515 1-218 = GST); experiment: A/G assays
T17 construct: also called mCASK

[24] = target: T18, GST-TAX2 PDZ domain fusion protein (human tax interaction protein 2 AA54-140; PDZ domain 1 of 1) (human, UniProt P08515 1-218 = GST); experiment: A/G assays
T18 construct: also called TX 2

[25] = target: T19, GST-CBP PDZ domain fusion protein (Cytohesin binding protein HE AA85-175; PDZ domain 1 of 1) (UniProt P08515 1-218 = GST); experiment: A/G assays
T19 construct: also called Prot

[26] = target: T14, GST-prIL16 PDZ domain fusion protein …; experiment: G assay
[27] = target: T4, GST-MPP1 PDZ domain fusion protein (55 …); experiment: G assay
[28] = target: T1, GST-NeDLG PDZ domain fusion protein …; experiment: A/G assays
[29] = target: T2, GST-LIM PDZ domain fusion protein …; experiment: A/G assays
[30] = target: T3, GST-41.8 kD PDZ domain fusion protein …; experiment: A/G assays
[31] = target: T7, GST-PSD95 PDZ domain fusion protein …; experiment: A/G assays
[32] = target: T5, GST-RGS12 PDZ domain fusion protein …; experiment: A/G assays
[33] = target: T8, GST-MPP2 PDZ domain fusion protein …; experiment: A/G assays
[34] = target: T6, GST-AF6 PDZ domain fusion protein (af-6 …); experiment: A/G assays

T10 sequence (P08515 1-218, tags or fused parts left off): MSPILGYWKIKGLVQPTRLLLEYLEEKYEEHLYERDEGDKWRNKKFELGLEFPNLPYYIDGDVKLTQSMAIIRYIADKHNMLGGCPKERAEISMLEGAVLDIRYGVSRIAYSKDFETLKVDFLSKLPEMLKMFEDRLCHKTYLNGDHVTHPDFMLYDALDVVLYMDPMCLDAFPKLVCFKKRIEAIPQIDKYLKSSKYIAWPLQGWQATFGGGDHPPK
GST-NOS1 PDZ domain fusion protein (human neuronal nitric oxide synthase; PDZ domain 1 of 1), sequence (P08515 1-218, tags or fused parts left off): as above
T13 sequence (P08515 1-218, tags or fused parts left off): as above
T8 sequence (P08515 1-218, tags or fused parts left off): as above
GST-TIAM1 PDZ domain fusion protein (T-lymphoma invasion and metastasis inducing protein 1 AA1001-1088); PDZ 1 …, sequence (P08515 1-218, tags or fused parts left off): as above
GST-MINT3 PDZ domain fusion protein (human MINT3 AA11-52; PDZ domain 1 of 1), sequence (P08515 1-218, tags or fused parts left off): as above
GST-PTN-4 PDZ domain fusion protein (protein-tyrosine phosphatase meg1 AA774-862; PDZ domain 1 of 1), sequence (P08515 1-218, tags or fused parts left off): as above
T11 sequence (P08515 1-218, tags or fused parts left off): as above
GST-LIMK2 PDZ domain fusion protein (human LIM domain kinase 2 AA185-275; PDZ domain 1 of 1), sequence (P08515 1-218, tags or fused parts left off): as above
T4 sequence (P08515 1-218, tags or fused parts left off): as above
T19 sequence (P08515 1-218, tags or fused parts left off): as above
GST-DVL1 PDZ domain fusion protein (human dishevelled segment polarity protein homolog AA248-340); PDZ domain …, sequence (P08515 1-218, tags or fused parts left off): as above
T16 sequence (P08515 1-218, tags or fused parts left off): as above
T12 sequence (P08515 1-218, tags or fused parts left off): as above
T5 sequence (P08515 1-218, tags or fused parts left off): as above
T6 sequence (P08515 1-218, tags or fused parts left off): as above
T7 sequence (P08515 1-218, tags or fused parts left off): as above
T3 sequence (P08515 1-218, tags or fused parts left off): as above
T14 sequence (P08515 1-218, tags or fused parts left off): as above
T1 sequence (P08515 1-218, tags or fused parts left off): as above
T9 sequence (P08515 1-218, tags or fused parts left off): as above

| Binder | binding result [9] | binding result [10] | binding result [11] | binding result [12] | binding result [13] | binding result [14] | binding result [15] | binding result [16] | binding result [17] | binding result [19] | binding result [20] | binding result [21] | binding result [22] | binding result [23] | binding result [24] | binding result [25] | other results |
| --- | --- | --- | --- | --- | --- | --- | --- | --- | --- | --- | --- | --- | --- | --- | --- | --- | --- |
| B1 | no binding | no binding | no binding | no binding | no binding | no binding | no binding | no binding | no binding | no binding | no binding | no binding | no binding | no binding | no binding | no binding | binding result [1]: binds; binding result [2]: binds; binding result [3]: binds; binding result [4]: binds; binding result [5]: binds; binding result [6]: binds; binding result [7]: binds; binding result [8]: binds; binding result [18]: no binding |
| B2 | no binding | no binding | no binding | no binding | no binding | no binding | no binding | no binding | no binding | no binding | no binding | no binding | no binding | no binding | no binding | no binding | binding result [26]: binds; binding result [27]: binds; binding result [28]: no binding; binding result [29]: no binding; binding result [30]: no binding; binding result [31]: no binding; binding result [32]: no binding; binding result [33]: no binding; binding result [34]: no binding |
